The target in test [1] is mGluR2-GFP truncated by removing the entire extracellular domain (rat). The test is described as follows: single molecule pull-down.
Test [2] deals with full length HA-mGluR2 (rat) (UniProt P31421). The test is described as follows: co-IP.
The target of test [3] is chimera with the ECD of mGluR1 and the TMD (and C-terminal) of mGluR2 (rat). The test is described as follows: single molecule pull-down.
Test [4] shares this target. The test is described as follows: single molecule subunit counting.
Test [5] deals with chimera with the ECD of mGluR2 and the TMD (and C-terminal) of mGluR1 (rat). The test is described as follows: single molecule pull-down.
For test [6] the target is unchanged. The test can be described thus: single molecule subunit counting.

What is called stoichiometry N is a count of units in the complex or per binding partner.

Sequence of mGluR2-GFP truncated by removing the entire extracellular domain (domain or fragment) (P31421 19-872): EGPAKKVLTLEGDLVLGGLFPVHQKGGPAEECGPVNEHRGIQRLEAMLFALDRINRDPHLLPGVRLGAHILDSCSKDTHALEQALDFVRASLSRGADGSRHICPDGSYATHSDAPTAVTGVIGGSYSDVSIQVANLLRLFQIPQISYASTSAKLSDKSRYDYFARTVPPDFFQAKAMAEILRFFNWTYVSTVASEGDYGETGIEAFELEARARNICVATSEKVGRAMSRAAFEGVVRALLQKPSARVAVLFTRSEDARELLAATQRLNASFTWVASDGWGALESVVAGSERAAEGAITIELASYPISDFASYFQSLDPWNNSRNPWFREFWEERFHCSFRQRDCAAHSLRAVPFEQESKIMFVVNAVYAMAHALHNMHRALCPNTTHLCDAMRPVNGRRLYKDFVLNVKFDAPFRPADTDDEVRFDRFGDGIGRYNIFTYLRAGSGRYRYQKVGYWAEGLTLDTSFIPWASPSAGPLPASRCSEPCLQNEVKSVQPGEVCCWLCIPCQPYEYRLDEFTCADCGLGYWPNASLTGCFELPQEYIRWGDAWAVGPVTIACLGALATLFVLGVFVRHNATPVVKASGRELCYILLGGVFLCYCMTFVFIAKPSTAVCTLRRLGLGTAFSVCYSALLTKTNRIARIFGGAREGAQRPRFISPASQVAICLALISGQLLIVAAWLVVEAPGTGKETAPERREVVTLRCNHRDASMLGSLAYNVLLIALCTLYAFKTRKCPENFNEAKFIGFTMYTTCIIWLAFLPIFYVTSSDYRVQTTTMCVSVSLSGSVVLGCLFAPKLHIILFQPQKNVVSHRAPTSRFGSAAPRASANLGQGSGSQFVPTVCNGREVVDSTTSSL
Sequence of full length HA-mGluR2 (rat) (P31421 19-872): as above
Sequence of GFP-tagged isolated ligand binding domain of mGluR2 (domain or fragment) (P31421 19-872): as above

The substance “mGluR2-GFP truncated by removing the entire extracellular domain (domain or fragment)” showed a percent of spots bleaching in two steps in test [1] of 30%. The same substance showed a percent of spots bleaching in a single step in test [2] of 89.6%.

In test [2], “GFP-tagged isolated ligand binding domain of mGluR2 (domain or fragment)” yielded a percent of spots bleaching in a single step of 92.4%.

For the substance “chimera with the ECD of mGluR1 and the TMD (and C-terminal) of mGluR2 (receptor)”, the stoichiometry N in test [3] and in test [4] was 2 each time.

With “chimera with the ECD of mGluR2 and the TMD (and C-terminal) of mGluR1 (receptor)”, the stoichiometry N in test [5] and in test [6] was 2 in each case.

Values taken from article PMC5053906.
